Measurements taken from article PMC9646525, “Cryo-EM structure of the SEA complex” (Nature, 2022).

Key:
Sea3 = molecular target: T1, Sea3 (S. cerevisiae (endogenous in yeast …, UniProt Q03897 1-1148)); experiment: cryo-EM structure; endogenous SEAC purified from yeast via Sea4-TAP (IgG Dynabeads, TEV elution in 20 mM HEPES-NaOH pH 7.4, 300 mM NaCl, 2 mM DTT), on graphene-oxide-coated grids; details: both partners purified
T1 construct: Sea3, S. cerevisiae, endogenous subunit of the SEAC; Sea3^SIP (Sea3^Nter) lies in the wing, Sea3^SAP (Sea3^Cter) in the core; Native protein of the purified complex; two copies in the SEAC; source: endogenous, yeast cells expressing Sea4-TAP; in lysate and co-purified with Sea4-TAP (IgG Dynabeads, TEV elution)
T1 sequence (looked up): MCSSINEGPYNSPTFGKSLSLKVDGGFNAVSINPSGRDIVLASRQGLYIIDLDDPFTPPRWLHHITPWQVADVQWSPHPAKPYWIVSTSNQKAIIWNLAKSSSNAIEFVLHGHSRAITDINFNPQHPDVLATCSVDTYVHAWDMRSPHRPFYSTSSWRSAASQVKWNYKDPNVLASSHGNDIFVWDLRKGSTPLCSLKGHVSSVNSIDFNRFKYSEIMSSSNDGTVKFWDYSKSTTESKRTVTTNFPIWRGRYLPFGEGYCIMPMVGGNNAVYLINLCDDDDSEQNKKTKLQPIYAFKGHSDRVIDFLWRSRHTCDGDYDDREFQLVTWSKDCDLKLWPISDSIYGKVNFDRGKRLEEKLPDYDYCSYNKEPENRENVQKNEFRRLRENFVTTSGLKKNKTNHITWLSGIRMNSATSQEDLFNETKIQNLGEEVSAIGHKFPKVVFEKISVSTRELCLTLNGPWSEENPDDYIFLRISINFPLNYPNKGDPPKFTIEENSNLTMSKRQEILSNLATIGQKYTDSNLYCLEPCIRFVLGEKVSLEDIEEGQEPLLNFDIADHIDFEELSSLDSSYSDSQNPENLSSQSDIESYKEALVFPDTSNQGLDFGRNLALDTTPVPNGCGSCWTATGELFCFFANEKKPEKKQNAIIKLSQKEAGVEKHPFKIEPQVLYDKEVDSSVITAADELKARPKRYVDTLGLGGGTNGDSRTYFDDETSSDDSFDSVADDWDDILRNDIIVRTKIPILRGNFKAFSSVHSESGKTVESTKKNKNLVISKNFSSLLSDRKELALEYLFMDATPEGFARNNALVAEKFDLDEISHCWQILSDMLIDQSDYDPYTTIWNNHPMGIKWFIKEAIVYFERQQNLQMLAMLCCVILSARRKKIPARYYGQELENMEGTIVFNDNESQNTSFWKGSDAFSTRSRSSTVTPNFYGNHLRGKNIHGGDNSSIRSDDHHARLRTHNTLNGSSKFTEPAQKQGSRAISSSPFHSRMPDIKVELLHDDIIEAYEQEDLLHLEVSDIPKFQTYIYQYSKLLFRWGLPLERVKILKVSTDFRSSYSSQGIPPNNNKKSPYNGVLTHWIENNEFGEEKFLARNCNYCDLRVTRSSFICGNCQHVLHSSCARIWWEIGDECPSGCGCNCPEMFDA

Sea2 = molecular target: T2, Sea2 (S. cerevisiae (endogenous in yeast …, UniProt Q08281 1-1341)); experiment: as above; details: both partners purified
T2 construct: Sea2, S. cerevisiae, endogenous subunit of the SEAC (SEACAT, core); Native protein of the purified complex; two copies in the SEAC; source: endogenous, yeast cells expressing Sea4-TAP; in lysate and co-purified with Sea4-TAP (IgG Dynabeads, TEV elution)
T2 sequence (looked up): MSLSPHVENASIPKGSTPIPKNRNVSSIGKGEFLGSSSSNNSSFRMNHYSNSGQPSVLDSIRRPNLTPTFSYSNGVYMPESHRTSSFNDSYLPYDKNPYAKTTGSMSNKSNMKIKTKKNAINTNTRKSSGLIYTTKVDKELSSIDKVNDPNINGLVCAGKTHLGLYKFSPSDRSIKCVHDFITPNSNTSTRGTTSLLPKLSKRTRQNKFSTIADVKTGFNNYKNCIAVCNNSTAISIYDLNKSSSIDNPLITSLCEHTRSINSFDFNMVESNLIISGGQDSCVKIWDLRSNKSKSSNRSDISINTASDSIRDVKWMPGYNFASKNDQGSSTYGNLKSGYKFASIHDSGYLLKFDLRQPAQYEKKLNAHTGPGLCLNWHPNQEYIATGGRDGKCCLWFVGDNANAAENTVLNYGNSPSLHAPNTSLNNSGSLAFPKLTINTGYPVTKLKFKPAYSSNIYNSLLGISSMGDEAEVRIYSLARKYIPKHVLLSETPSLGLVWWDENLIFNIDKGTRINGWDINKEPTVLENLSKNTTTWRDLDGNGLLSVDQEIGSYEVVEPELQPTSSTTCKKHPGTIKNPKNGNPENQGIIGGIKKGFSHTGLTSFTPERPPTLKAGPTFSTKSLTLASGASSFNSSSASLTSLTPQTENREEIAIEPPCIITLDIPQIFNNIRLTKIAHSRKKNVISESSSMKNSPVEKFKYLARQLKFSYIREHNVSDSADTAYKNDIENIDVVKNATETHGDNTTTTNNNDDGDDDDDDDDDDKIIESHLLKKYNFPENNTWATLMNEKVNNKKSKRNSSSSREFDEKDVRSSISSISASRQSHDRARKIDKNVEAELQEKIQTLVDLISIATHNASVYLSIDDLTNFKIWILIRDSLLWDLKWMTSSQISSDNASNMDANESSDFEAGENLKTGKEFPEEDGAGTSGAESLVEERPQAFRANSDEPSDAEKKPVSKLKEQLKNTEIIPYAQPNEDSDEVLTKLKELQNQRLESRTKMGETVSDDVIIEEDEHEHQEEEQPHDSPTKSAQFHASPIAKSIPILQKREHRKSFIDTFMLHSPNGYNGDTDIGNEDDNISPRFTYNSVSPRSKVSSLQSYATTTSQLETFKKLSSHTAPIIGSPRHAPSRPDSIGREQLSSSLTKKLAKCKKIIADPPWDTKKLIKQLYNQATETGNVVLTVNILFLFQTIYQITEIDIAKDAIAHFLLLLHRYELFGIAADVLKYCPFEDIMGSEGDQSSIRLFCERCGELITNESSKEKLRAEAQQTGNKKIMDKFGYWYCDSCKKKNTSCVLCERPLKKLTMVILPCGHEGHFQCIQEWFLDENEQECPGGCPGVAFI

B1: Seh1 (natural protein, UniProt P53011 1-349, looked up)
chain: MQPFDSGHDDLVHDVVYDFYGRHVATCSSDQHIKVFKLDKDTSNWELSDSWRAHDSSIVAIDWASPEYGRIIASASYDKTVKLWEEDPDQEECSGRRWNKLCTLNDSKGSLYSVKFAPAHLGLKLACLGNDGILRLYDALEPSDLRSWTLTSEMKVLSIPPANHLQSDFCLSWCPSRFSPEKLAVSALEQAIIYQRGKDGKLHVAAKLPGHKSLIRSISWAPSIGRWYQLIATGCKDGRIRIFKITEKLSPLASEESLTNSNMFDNSADVDMDAQGRSDSNTEEKAELQSNLQVELLSEHDDHNGEVWSVSWNLTGTILSSAGDDGKVRLWKATYSNEFKCMSVITAQQ
notes: Seh1, S. cerevisiae, endogenous subunit of the SEAC (SEACAT, core); Native protein of the purified complex; six copies in the SEAC; source: endogenous, yeast cells expressing Sea4-TAP; in lysate and co-purified with Sea4-TAP (IgG Dynabeads, TEV elution)
- binding result (Sea3): binds
- binding result (Sea2): binds
